Test results from patent US20240151714A1.

Assays:
[1] = target: hCG-first DNA conjugate (human) (UniProt P01215); assay: cell-based or functional assay
[2] = target: hCG-second DNA conjugate (human) (UniProt P01215); assay: cell-based or functional assay
Sequence of hCG-second DNA conjugate (human) (P01215 other isoform, or with tags, fused parts or gaps limits assumed, chain 1 of 2, other chains not shown): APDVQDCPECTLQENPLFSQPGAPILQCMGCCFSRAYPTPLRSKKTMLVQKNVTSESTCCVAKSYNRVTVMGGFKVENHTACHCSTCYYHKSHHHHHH

Sequence of hCG-first DNA conjugate (human) (P01215 other isoform, or with tags, fused parts or gaps limits assumed, chain 1 of 2, other chains not shown): as above

limit of detection (LOD) for the antibody, PPR-based immunoassay (absorbance at 405 nm) [1]: 9.83 pM
limit of detection (LOD) for the antibody, PPR-based immunoassay (absorbance at 405 nm) [2]: 9.83 pM
Substance: hCG monoclonal antibody (MA5-14680; Thermo Fisher Scientific)
